Data set [1] addresses D-lactate dehydrogenase (DLD) from Gluconobacter oxydans (Gluconobacter oxydans). Description: SEC; Superdex 200 10/300 GL, 25 °C, 0.75 ml/min, 150 mM NaCl, 0.1 mM DTT, 1 mM EDTA, 25 mM Tris-HCl pH 7.5; assembly state against gel filtration standards.
Data set [2] deals with Poly-L-lysine (PLL) hydrobromide (molecular weight: 4000–15,000 Da).
Data set [3] concerns the target L-lactate oxidase (LOX) derived from Enterococcus faecium (Enterococcus faecium). The experiment in a line: SEC; Superdex 200 10/300 GL, 25 °C, 0.75 ml/min, 150 mM NaCl, 0.1 mM DTT, 1 mM EDTA, 25 mM Tris-HCl pH 7.5; assembly state against gel filtration standards. Background: In gel filtration, larger molecules generally elute earlier.
Data set [4] concerns the molecule itself. The data set is described as above.

On to “D-lactate dehydrogenase (DLD) from Gluconobacter oxydans (enzyme)”, for which the stoichiometry N (as a rule, a count of units in the complex or per binding partner) in data set [1] was found to be 4.
The molecule “L-lactate oxidase (LOX) derived from Enterococcus faecium (enzyme)” returned an enzyme activity (DCIP assay, 25 nM LOX) with 1 mM PLL against without PLL, at pH 7 and pH 8 in data set [2] of 7.5 fold. Also, in data set [3], the stoichiometry N came to 4.

B1: Acetaldehyde dehydrogenase (ALDH) from Sphingomonas wittichii (enzyme)
chain: AQAPITGGRPFADKPFKVEEVARFDSPWAMTFLPGGHMLVTEKAGRLLLLSPDGARRTAVEGVPAVDSSGQGALGEVVAHPDFATNGLVYFSYSAPGSPNGIVLARGKLVGDLGGARLEGVTTLYRAHPLKSGGHYAGRIAFSPDGHLFFSMGERQKFTPAQEPDGVLGKVVRLTMDGQPAPGNPLAAKGFDPAVWSYGHRNPLGLAFDLEGRLWDAEMGPKGGDEVNLILPGRNYGWPIVSNGDHYDGKPIPDHVTRPEFEAPKVSWNPSISPSSLLVYSGKLFPQWRGKALVGALSGEMLILVDLGEEGAKEEARYAMGQRIRAVDQGPDGAVYVLEDKAGGRLLRLMPAG
Turning to B1, the “stoichiometry N” value in data set [4] turned out to be 2.

B2: Glucose dehydrogenase (GDH) from Acinetobacter calcoaceticus (enzyme, UniProt P13650 25-478, looked up)
chain: DVPLTPSQFAKAKSENFDKKVILSNLNKPHALLWGPDNQIWLTERATGKILRVNPESGSVKTVFQVPEIVNDADGQNGLLGFAFHPDFKNNPYIYISGTFKNPKSTDKELPNQTIIRRYTYNKSTDTLEKPVDLLAGLPSSKDHQSGRLVIGPDQKIYYTIGDQGRNQLAYLFLPNQAQHTPTQQELNGKDYHTYMGKVLRLNLDGSIPKDNPSFNGVVSHIYTLGHRNPQGLAFTPNGKLLQSEQGPNSDDEINLIVKGGNYGWPNVAGYKDDSGYAYANYSAAANKSIKDLAQNGVKVAAGVPVTKESEWTGKNFVPPLKTLYTVQDTYNYNDPTCGEMTYICWPTVAPSSAYVYKGGKKAITGWENTLLVPSLKRGVIFRIKLDPTYSTTYDDAVPMFKSNNRYRDVIASPDGNVLYVLTDTAGNVQKDDGSVTNTLENPGSLIKFTYKAK
notes: PQQ-dependent glucose dehydrogenase, Acinetobacter calcoaceticus; expression vector pET22b-acGDH, a gift from Aisin Cosmos R&D; printed mass 53.7 kDa, calculated pI 8.93; also called acGDH
Regarding B2, in data set [4], the “stoichiometry N” value was 4.

The values are drawn from article PMC10474089, “Activation of oxidoreductases by the formation of enzyme assembly” (Scientific Reports, 2023).
